Laboratory results as given in US20200165344A1 (DRAGONFLY THERAPEUTICS, published 2020).
Changes are numbered by the printed parent chain.

T1: recombinant human NKG2D-Fc (human, UniProt P26718 73-216)
T1 construct: extracellular domain; also called human NKG2D-Fc fusion protein; NKG2D-Fc-biotin; not shown: human IgG1 Fc domain
T1 sequence (looked up): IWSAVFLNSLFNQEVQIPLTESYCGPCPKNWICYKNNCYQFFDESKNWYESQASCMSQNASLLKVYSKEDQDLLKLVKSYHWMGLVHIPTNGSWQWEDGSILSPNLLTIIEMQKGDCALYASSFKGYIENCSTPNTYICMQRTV

T2: recombinant cynomolgus NKG2D-Fc (cynomolgus; human, UniProt P61252 73-216)
T2 construct: extracellular domain; also called cynomolgus NKG2D-Fc fusion protein; not shown: human IgG1 Fc domain
T2 sequence (looked up): T1 sequence (looked up) with D43N, T133I

T3: recombinant mouse NKG2D-Fc (mouse; human, UniProt O54709 90-232)
T3 construct: extracellular domain; also called mouse NKG2D-Fc fusion protein; Mouse NKG2D-Fc-biotin; not shown: human IgG1 Fc domain
T3 sequence (looked up): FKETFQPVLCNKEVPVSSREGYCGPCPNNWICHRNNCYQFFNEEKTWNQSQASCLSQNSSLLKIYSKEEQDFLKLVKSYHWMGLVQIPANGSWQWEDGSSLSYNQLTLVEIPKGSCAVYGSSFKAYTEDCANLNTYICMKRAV

B1: A49-TriNKET-FLT3-IMCEB10 (bispecific antibody, V domains shown)
VH 1: EVQLVESGGGLVKPGGSLRLSCAASGFTFSSYSMNWVRQAPGKGLEWVSSISSSSSYIYYADSVKGRFTISRDNAKNSLYLQMNSLRAEDTAVYYCARGAPMGAAAGWFDPWGQGTLVTVSS
VL 1: DIQMTQSPSSVSASVGDRVTITCRASQGISSWLAWYQQKPGKAPKLLIYAASSLQSGVPSRFSGSGSGTDFTLTISSLQPEDFATYYCQQGVSFPRTFGGGTKVEIK
VH 2: EVQLVQSGAEVKKPGASVKVSCKASGYTFTSYYMHWVRQAPGQGLEWMGIINPSGGSTSYAQKFQGRVTMTRDTSTSTVYMELSSLRSEDTAVYYCARGVGAHDAFDIWGQGTTVTVSSA
VL 2: DVVMTQSPLSLPVTPGEPASISCRSSQSLLHSNGNNYLDWYLQKPGQSPQLLIYLGSNRASGVPDRFSGSGSDTDFTLQISRVEAEDVGVYYCMQGTHPAISFGQGTRLEIKR
notes: also called A49-TriNKET-IMCEB10
B2: ADI-27749 (antibody, V domains shown)
VH: B1 VH 1
VL: B1 VL 1
notes: also called A49
B3: A49-TriNKET-FLT3-4G8 (bispecific antibody, V domains shown)
VH 1: B1 VH 1
VL 1: B1 VL 1
VH 2: QVQLQQPGAELVKPGASLKLSCKSSGYTFTSYWMHWVRQRPGHGLEWIGEIDPSDSYKDYNQKFKDKATLTVDRSSNTAYMHLSSLTSDDSAVYYCARAITTTPFDFWGQGTTLTVSS
VL 2: DIVLTQSPATLSVTPGDSVSLSCRASQSISNNLHWYQQKSHESPRLLIKYASQSISGIPSRFSGSGSGTDFTLSINSVETEDFGVYFCQQSNTWPYTFGGGTKLEIKR
notes: also called A49-TriNKET-4G8
B4: ADI-29378 (antibody, V domains shown)
VH: QVQLVQSGAEVKKPGASVKVSCKASGYTFTSYYMHWVRQAPGQGLEWMGIINPSGGSTSYAQKFQGRVTMTRDTSTSTVYMELSSLRSEDTAVYYCAREGAGFAYGMDYYYMDVWGKGTTVTVSS
VL: EIVLTQSPATLSLSPGERATLSCRASQSVSSYLAWYQQKPGQAPRLLIYDASNRATGIPARFSGSGSGTDFTLTISSLEPEDFAVYYCQQSDNWPFTFGGGTKVEIK
notes: also called E78
B5: ADI-27727 (antibody, V domains shown)
VH: QVQLVQSGAEVKKPGSSVKVSCKASGGTFSSYAISWVRQAPGQGLEWMGGIIPIFGTANYAQKFQGRVTITADESTSTAYMELSSLRSEDTAVYYCARGDSSIRHAYYYYGMDVWGQGTTVTVSS
VL: not shown
B6: ADI-27705 (antibody, V domains shown)
VH: QVQLQQWGAGLLKPSETLSLTCAVYGGSFSGYYWSWIRQPPGKGLEWIGEIDHSGSTNYNPSLKSRVTISVDTSKNQFSLKLSSVTAADTAVYYCARARGPWSFDPWGQGTLVTVSS
VL: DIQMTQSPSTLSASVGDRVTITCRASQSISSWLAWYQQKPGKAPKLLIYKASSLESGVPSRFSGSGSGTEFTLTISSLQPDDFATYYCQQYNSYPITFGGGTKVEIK
B7: ADI-29403 (antibody, V domains shown)
VH: B6 VH
VL: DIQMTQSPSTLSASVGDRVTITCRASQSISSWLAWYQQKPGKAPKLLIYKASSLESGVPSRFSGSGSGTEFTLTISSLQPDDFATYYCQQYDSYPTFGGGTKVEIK
B8: C26-TriNKET-FLT3-4G8 (bispecific antibody, V domains shown)
VH 1: B6 VH
VL 1: B1 VL 1 with S10T, V11L, G28S, A50K, Q55E, D70E, E81D, G91Y, V92G, R96I
VH 2: B3 VH 2
VL 2: B3 VL 2
notes: also called C26-TriNKET-4G8
B9: ADI-29399 (antibody, V domains shown)
VH: B6 VH
VL: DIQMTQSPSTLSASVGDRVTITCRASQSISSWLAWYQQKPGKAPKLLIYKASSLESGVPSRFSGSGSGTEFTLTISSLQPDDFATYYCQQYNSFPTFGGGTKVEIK
B10: ADI-27743 (antibody, V domains shown)
VH: B6 VH
VL: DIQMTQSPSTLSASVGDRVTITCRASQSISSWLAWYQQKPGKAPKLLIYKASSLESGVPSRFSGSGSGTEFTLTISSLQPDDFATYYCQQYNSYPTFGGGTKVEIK
B11: ADI-29401 (antibody, V domains shown)
VH: B6 VH
VL: DIQMTQSPSTLSASVGDRVTITCRASQSIGSWLAWYQQKPGKAPKLLIYKASSLESGVPSRFSGSGSGTEFTLTISSLQPDDFATYYCQQYDIYPTFGGGTKVEIK
B12: ADI-29405 (antibody, V domains shown)
VH: B6 VH
VL: B11 VL with G30S, D92G, I93S, Y94F
B13: ADI-29407 (antibody, V domains shown)
VH: B6 VH
VL: B11 VL with G30S, D92Q, I93S, Y94F
B14: ADI-27741 (antibody, V domains shown)
VH: B6 VH
VL: B11 VL with Y91S, D92N, I93S, P95Y
B15: ADI-29419 (antibody, V domains shown)
VH: B6 VH
VL: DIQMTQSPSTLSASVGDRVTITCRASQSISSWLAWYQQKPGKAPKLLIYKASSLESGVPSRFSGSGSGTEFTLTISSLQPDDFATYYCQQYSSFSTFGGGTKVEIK
B16: ADI-29429 (antibody, V domains shown)
VH: B6 VH
VL: DIQMTQSPSTLSASVGDRVTITCRASQSIGSWLAWYQQKPGKAPKLLIYKASSLESGVPSRFSGSGSGTEFTLTISSLQPDDFATYYCQQYELYSYTFGGGTKVEIK
B17: ADI-29421 (antibody, V domains shown)
VH: B6 VH
VL: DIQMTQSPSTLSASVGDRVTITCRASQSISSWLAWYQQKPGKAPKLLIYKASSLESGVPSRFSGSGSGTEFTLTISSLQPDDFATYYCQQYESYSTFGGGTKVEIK
B18: ADI-29404 (antibody, V domains shown)
VH: B6 VH
VL: B11 VL with G30S, Q89E, I93S
notes: also called F04
B19: ADI-28226 (antibody, V domains shown)
VH: B6 VH
VL: B16 VL with G30S, E92G, L93S, Y94F, S95P, Y96I
notes: also called C26
B20: ADI-29424 (antibody, V domains shown)
VH: B6 VH
VL: B11 VL with G30S, I93S, Y94F, P95I
B21: ADI-29425 (antibody, V domains shown)
VH: B6 VH
VL: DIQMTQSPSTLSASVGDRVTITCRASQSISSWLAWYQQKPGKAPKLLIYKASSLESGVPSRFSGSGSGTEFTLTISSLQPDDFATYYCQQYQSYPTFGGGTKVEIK
B22: ADI-27740 (antibody, V domains shown)
VH: B6 VH
VL: B11 VL with D92H, I93S, Y94F, P95Y
notes: also called A40
B23: ADI-29426 (antibody, V domains shown)
VH: B6 VH
VL: B11 VL with D92H, I93S, Y94F
B24: ADI-29447 (antibody, V domains shown)
VH: B6 VH
VL: B11 VL with G30S, I93T, Y94F, P95I
notes: also called F47

Tests used:
[1] = target: T4, FLT3 expressed on human AML cell lines Molm-13 and EOL-1 (human, UniProt P36888 27-993); assay: flow cytometry on Molm-13 and EOL-1 cells
T4 construct: the FLT3 in the assay is that carried by the cell lines themselves; also called FMS-like tyrosine kinase-3
Experimental: Human AML cell lines (Molm-13 and EOL-1) expressing FLT3 were used to assay the binding of FLT3-targeting TriNKETs to the tumor-associated antigen. TriNKETs were incubated with the cells, and the binding was detected using fluorophore-conjugated anti-human IgG secondary antibodies. Cells were analyzed by flow cytometry and mean fluorescence intensity (MFI) was normalized to secondary antibody controls to obtain fold over background (FOB) values.

[2] = target: T1, recombinant human NKG2D-Fc; assay: ELISA, NKG2D-Fc coated
[3] = target: T2, recombinant cynomolgus NKG2D-Fc; assay: ELISA, NKG2D-Fc coated
[4] = target: T3, recombinant mouse NKG2D-Fc; assay: ELISA, NKG2D-Fc coated

Binder | binding result [1] | binding result [2] | binding result [3] | binding result [4]
B1 | binds |  |  | 
B2 |  | binds | binds | binds
B3 | binds |  |  | 
B4 |  | binds | binds | binds
B5 |  | binds | binds | binds
B6 |  | binds | binds | binds
B7 |  | binds | binds | binds
B8 | binds |  |  | 
B9 |  | binds | binds | binds
B10 |  | binds | binds | binds
B11 |  | binds | binds | binds
B12 |  | binds | binds | binds
B13 |  | binds | binds | binds
B14 |  | binds | binds | binds
B15 |  | binds | binds | binds
B16 |  | binds | binds | binds
B17 |  | binds | binds | binds
B18 |  | binds | binds | binds
B19 |  | binds | binds | binds
B20 |  | binds | binds | binds
B21 |  | binds | binds | binds
B22 |  | binds | binds | binds
B23 |  | binds | binds | binds
B24 |  | binds | binds | binds
